# Data: patent publication US20220403009A1 (IGM BIOSCIENCES, published 2022)
# Values joined by “and” are separate entries in the source; they are usually repeats but may differ in a detail not shown here. Identical values can stand only once. Like-named read-outs stand apart in the source and are kept apart here.
# B1: Ab10 IgM (antibody)
# VH: QITLKESGPTLVKPTQTLTLTCTFSGFSLSTSGVGVGWIRQPPGKALEWLALIYWDDDKRYSPSLKSRLTITKDTSKNQVVLTMTNMDPVDTATYYCAHHKIERIFDYWGQGTLVTVSS
# VL: QSALAQPASVSGSPGQSITISCTGTSSDVGAYNYVSWYQQHPGKAPKLMIYDVSKRPSGVSNRFSGSKSGNTASLTISGLQAEDEADYYCSSYTTSSTVFGGGTKLTVL
# chain: not shown
# B2: Ab10 IgG (antibody, V domains shown)
# VH: B1 VH
# VL: B1 VL
# B3: Ab7 IgM (antibody)
# VH: EVQLVESGGGLVQPGGSLRLSCAVSGFTVSSNYMSWVRQAPGKGLEWVSVIYTGGGTYYADSVKGRFTISRDNSKNTLYLQMNTLRAEDTTVYYCARGDGSYYRAFDYWGQGTLVTVSS
# VL: DIQMTQSPSSLSASVGDRVTITCRASQSISNYLNWYHQKPGKAPKLLIYAASSLQSGVPSRFSGSGSGTDFTLTISSLQPEDFATYYCQQSYSPPPTFGPGTKVEIK
# chain: not shown
# B4: Ab7 IgG (antibody, V domains shown)
# VH: B3 VH
# VL: B3 VL
# B5: Ab8 IgM (antibody)
# VH: EVQLVESGGGLIQPGGSLRLSCAASGFTVSRNYMNWVRQAPGKGLEWVSVIYSGGSTFYADSVKGRFTISRDNSKNTLYLQMNSLRAEDTAVYYCARDASSYGIDWGQGTLVTVSS
# VL: not shown
# chain: not shown
# B6: Ab8 IgG (antibody, V domains shown)
# VH: B5 VH
# VL: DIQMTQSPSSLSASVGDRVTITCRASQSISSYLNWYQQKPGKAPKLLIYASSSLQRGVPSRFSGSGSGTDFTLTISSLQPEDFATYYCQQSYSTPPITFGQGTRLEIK
# Columns and labels:
# SARS-CoV-2 RBD E484K [1] = biological target: T1, SARS-CoV-2 RBD E484K (SARS-CoV-2, UniProt P0DTC2 319-541); test: BLI, blocking of ACE2-Fc binding to RBD
# SARS-CoV-2 RBD G446V [2] = biological target: T2, SARS-CoV-2 RBD G446V (SARS-CoV-2, UniProt P0DTC2 319-541); test: BLI, blocking of ACE2-Fc binding to RBD
# SARS-CoV-2 RBD Y453F [3] = biological target: T3, SARS-CoV-2 RBD Y453F (SARS-CoV-2, UniProt P0DTC2 319-541); test: BLI, blocking of ACE2-Fc binding to RBD
# SARS-CoV-2 RBD K417E [4] = biological target: T4, SARS-CoV-2 RBD K417E (SARS-CoV-2, UniProt P0DTC2 319-541); test: BLI, blocking of ACE2-Fc binding to RBD
# SARS-CoV-2 RBD E484K [5] = biological target: T1, SARS-CoV-2 RBD E484K; test: BLI, RBD on anti-Penta-His sensor
# SARS-CoV-2 RBD G446V [6] = biological target: T2, SARS-CoV-2 RBD G446V; test: BLI, RBD on anti-Penta-His sensor
# SARS-CoV-2 RBD Y453F [7] = biological target: T3, SARS-CoV-2 RBD Y453F; test: BLI, RBD on anti-Penta-His sensor
# SARS-CoV-2 RBD K417E [8] = biological target: T4, SARS-CoV-2 RBD K417E; test: BLI, RBD on anti-Penta-His sensor
# SARS-CoV-2 RBD E484K [9] = biological target: T1, SARS-CoV-2 RBD E484K; test: BLI, blocking of ACE2-Fc binding to RBD; remark: listed apart in the source
# SARS-CoV-2 RBD G446V [10] = biological target: T2, SARS-CoV-2 RBD G446V; test: BLI, blocking of ACE2-Fc binding to RBD; remark: listed apart in the source
# SARS-CoV-2 RBD Y453F [11] = biological target: T3, SARS-CoV-2 RBD Y453F; test: BLI, blocking of ACE2-Fc binding to RBD; remark: listed apart in the source
# SARS-CoV-2 RBD K417E [12] = biological target: T4, SARS-CoV-2 RBD K417E; test: BLI, blocking of ACE2-Fc binding to RBD; remark: listed apart in the source
# SARS-CoV-2 RBD E484K [13] = biological target: T1, SARS-CoV-2 RBD E484K; test: BLI, RBD on anti-Penta-His sensor; remark: listed apart in the source
# SARS-CoV-2 RBD G446V [14] = biological target: T2, SARS-CoV-2 RBD G446V; test: BLI, RBD on anti-Penta-His sensor; remark: listed apart in the source
# SARS-CoV-2 RBD Y453F [15] = biological target: T3, SARS-CoV-2 RBD Y453F; test: BLI, RBD on anti-Penta-His sensor; remark: listed apart in the source
# SARS-CoV-2 RBD K417E [16] = biological target: T4, SARS-CoV-2 RBD K417E; test: BLI, RBD on anti-Penta-His sensor; remark: listed apart in the source
# SARS-CoV-2 RBD E484K [17] = biological target: T1, SARS-CoV-2 RBD E484K; test: BLI, RBD on anti-Penta-His sensor; remark: listed apart in the source
# SARS-CoV-2 RBD G446V [18] = biological target: T2, SARS-CoV-2 RBD G446V; test: BLI, RBD on anti-Penta-His sensor; remark: listed apart in the source
# SARS-CoV-2 RBD Y453F [19] = biological target: T3, SARS-CoV-2 RBD Y453F; test: BLI, RBD on anti-Penta-His sensor; remark: listed apart in the source
# SARS-CoV-2 RBD K417E [20] = biological target: T4, SARS-CoV-2 RBD K417E; test: BLI, RBD on anti-Penta-His sensor; remark: listed apart in the source
# SARS-CoV-2 RBD E484K [21] = biological target: T1, SARS-CoV-2 RBD E484K; test: BLI, blocking of ACE2-Fc binding to RBD; remark: listed apart in the source
# SARS-CoV-2 RBD G446V [22] = biological target: T2, SARS-CoV-2 RBD G446V; test: BLI, blocking of ACE2-Fc binding to RBD; remark: listed apart in the source
# SARS-CoV-2 RBD Y453F [23] = biological target: T3, SARS-CoV-2 RBD Y453F; test: BLI, blocking of ACE2-Fc binding to RBD; remark: listed apart in the source
# SARS-CoV-2 RBD K417E [24] = biological target: T4, SARS-CoV-2 RBD K417E; test: BLI, blocking of ACE2-Fc binding to RBD; remark: listed apart in the source
Binder,IC50 (SARS-CoV-2 RBD E484K [1]),IC50 (SARS-CoV-2 RBD G446V [2]),IC50 (SARS-CoV-2 RBD Y453F [3]),IC50 (SARS-CoV-2 RBD K417E [4]),Kd (SARS-CoV-2 RBD E484K [5]) [pM],Kd (SARS-CoV-2 RBD G446V [6]) [pM],Kd (SARS-CoV-2 RBD Y453F [7]) [pM],Kd (SARS-CoV-2 RBD K417E [8]) [pM],IC50 (SARS-CoV-2 RBD E484K [9]),IC50 (SARS-CoV-2 RBD G446V [10]),IC50 (SARS-CoV-2 RBD Y453F [11]),IC50 (SARS-CoV-2 RBD K417E [12]),Kd (SARS-CoV-2 RBD G446V [14]) [pM],Kd (SARS-CoV-2 RBD Y453F [15]) [pM],Kd (SARS-CoV-2 RBD K417E [16]) [pM],Kd (SARS-CoV-2 RBD E484K [17]) [pM],Kd (SARS-CoV-2 RBD G446V [18]) [pM],Kd (SARS-CoV-2 RBD Y453F [19]) [pM],Kd (SARS-CoV-2 RBD K417E [20]) [pM],IC50 (SARS-CoV-2 RBD E484K [21]),further results
B1,0.47 nM and 0.41 µg/mL,5 nM and 4.3 µg/mL,0.49 nM and 0.42 µg/mL,0.32 nM and 0.28 µg/mL,< 1,110,< 1,< 1,,,,,,,,,,,,,
B2,10 nM and 1.5 µg/mL,> 69 nM and > 10 µg/mL,8.6 nM and 1.2 µg/mL,3.8 nM and 0.55 µg/mL,< 1,120000,< 1,< 1,,,,,,,,,,,,,
B3,,,,,,,,,0.87 nM and 0.76 µg/mL,0.32 nM and 0.28 µg/mL,0.42 nM and 0.36 µg/mL,0.36 nM and 0.31 µg/mL,< 1,< 1,< 1,,,,,,Kd (SARS-CoV-2 RBD E484K [13]): 7 pM
B4,,,,,,,,,> 69 nM and > 10 µg/mL,2.1 nM and 0.3 µg/mL,3.2 nM and 0.46 µg/mL,2.4 nM and 0.35 µg/mL,< 1,< 1,< 1,,,,,,
B5,,,,,,,,,,,,,,,,< 1,< 1,< 1,< 1,1.3 µg/mL and 1.5 nM,IC50 (SARS-CoV-2 RBD G446V [22]): 0.78 µg/mL and 0.9 nM; IC50 (SARS-CoV-2 RBD Y453F [23]): 0.98 µg/mL and 1.1 nM; IC50 (SARS-CoV-2 RBD K417E [24]): 1 µg/mL and 1.2 nM
B6,,,,,,,,,,,,,,,,< 1,< 1,< 1,2000,2.8 µg/mL and 19 nM,IC50 (SARS-CoV-2 RBD G446V [22]): 0.88 µg/mL and 6.1 nM; IC50 (SARS-CoV-2 RBD Y453F [23]): 1 µg/mL and 7.2 nM; IC50 (SARS-CoV-2 RBD K417E [24]): 1 µg/mL and 7.2 nM
